Data as given in US8518892B2, “Methods to treat symptoms of pathophysiology related to body mass” (Board of Supervisors of Louisiana State University and …, priority 2005, dated 2013).

System: KKAy mice
Assay: Enho 1 ip for 3 days in KKAy mice (Examples 16-18)
Type: in vivo, mouse
Procedure: (§1) The effect of Enho-1 upon weight loss was tested over the course of 3 days using KKAy mice. The mice were fed Breeder Chow (Purina 5015) and were approximately 12-14 weeks of age at the start of the experiment. Six control mice received vehicle only while six test mice each received doses of either 900 nmol/kg/d or 9000 nmol/kg/d. The injections were given as 3 intraperitoneal (ip) injections at 0600, 1400 and 2000 h on days 1 and 2; over the 3 day period, the mice received a total of 7 injections. All animals were euthanized 5 hours after the last injection given the morning of the third day. Food was removed after the final injection.
as §1, with “insulin and glucose” for “weight loss”, “while five or” for “while”, “nmol/kg/d, respectively.” for “nmol/kg/d.”, “ip” for “intraperitoneal (ip)”, “injection. The HOMA-IR for each treatment was calculated using the following formula: ((glucose mg/dL÷18)×(insulin ng/ml×25.05))÷22.5” for “injection.”
as §1, with “liver weight, liver lipid content and liver TG” for “weight loss”, “while five or” for “while”, “nmol/kg/d, respectively.” for “nmol/kg/d.”, “ip” for “intraperitoneal (ip)”

[1] = 900 nmol/kg/d ip, listed as Enho-1
[2] = 9000 nmol/kg/d ip, listed as Enho-1

B1: Enho 1: human Enho 1, a 76 amino acid peptide having the sequence SEQ ID NO: 14 (peptide, listed as Homo sapiens)
chain: MGAAISQGALIAIVCNGLVGFLLLLLWVILCWACHSRSADVDSLSESSPNSSPGPCPEKAPPPQKPSHEGSYLLQP
For B1, the Blood glucose (900 nmol/kg/d ip) was 474 mg/dL, the HOMA-IR (900 nmol/kg/d ip) was 167 and the “HOMA-IR decrease as compared to the control group” value (“HOMA-IR decrease” below) (900 nmol/kg/d ip) was 29%. For the same molecule, the Insulin (900 nmol/kg/d ip) was 5.7 ng/mL, the “Liver TG” value (900 nmol/kg/d ip) was 40 mg/g and the “Liver TG total” value (900 nmol/kg/d ip) was 66 mg/g. The Liver lipid (900 nmol/kg/d ip) was 82 mg/g, the Liver lipid total (900 nmol/kg/d ip) was 137 mg/g and the Liver weight (900 nmol/kg/d ip) was 1.6 g. The “Liver weight % body weight” value (900 nmol/kg/d ip) was 5.0%, the “Weight (pre-treatment)” value (900 nmol/kg/d ip) was 35.3 g and the “Weight (termination)” value (900 nmol/kg/d ip) was 33.0 g. For the same molecule, the “blood glucose levels decrease” value (900 nmol/kg/d ip) was “approximately 10%”, the insulin levels reduction (900 nmol/kg/d ip) was “about 22%” and the “liver TG reduction as compared to the control group” value (900 nmol/kg/d ip) was 32%. For the same molecule, the Blood glucose [1] was 474 ± 29 mg/dL, the HOMA-IR [1] was 167 ± 18 and the “HOMA-IR decrease” value [1] was “(↓ 29%)”. For the same molecule, the Insulin [1] was 5.7 ± 0.5 ng/mL, the “Liver TG” value [1] was 40 ± 8 mg/g and the “Liver TG total” value [1] was 66 ± 13 mg/g. The Liver lipid [1] was 82 ± 9 mg/g, the Liver lipid total [1] was 137 ± 18 mg/g and the Liver weight [1] was 1.6 ± 0.1 g. The “Liver weight % body weight” value [1] was 5.0 ± 0.2%, the “Weight (pre-treatment)” value [1] was 35.3 ± 1.1 g and the “Weight (termination)” value [1] was 33.0 ± 1.0 g. The Blood glucose (9000 nmol/kg/d ip) was 480 mg/dL, the HOMA-IR (9000 nmol/kg/d ip) was 213 and the “HOMA-IR decrease” value (9000 nmol/kg/d ip) was 9%. The Insulin (9000 nmol/kg/d ip) was 7.0 ng/mL, the “Liver TG total” value (9000 nmol/kg/d ip) was 53 mg/g and the Liver lipid (9000 nmol/kg/d ip) was 87 mg/g. The Liver lipid total (9000 nmol/kg/d ip) was 143 mg/g, the Liver weight (9000 nmol/kg/d ip) was 1.6 g and the “Liver weight % body weight” value (9000 nmol/kg/d ip) was 4.9%. For the same molecule, the “Weight (pre-treatment)” value (9000 nmol/kg/d ip) was 35.6 g, the “Weight (termination)” value (9000 nmol/kg/d ip) was 33.1 g and the “liver TG reduction as compared to the control group” value (9000 nmol/kg/d ip) was 46%. The “Liver TG” value (9000 nmol/kg/d ip, P < 0.05 vs control) was 32 mg/g, the “Liver TG” value (9000 nmol/kg/d ip, P < 0.05 vs control, listed as Enho-1) was 32 ± 5 mg/g and the Blood glucose [2] was 480 ± 38 mg/dL. For the same molecule, the HOMA-IR [2] was 213 ± 37, the “HOMA-IR decrease” value [2] was “(↓ 9%)” and the Insulin [2] was 7.0 ± 0.8 ng/mL. For the same molecule, the “Liver TG total” value [2] was 53 ± 11 mg/g, the Liver lipid [2] was 87 ± 6 mg/g and the Liver lipid total [2] was 143 ± 17 mg/g. The Liver weight [2] was 1.6 ± 0.1 g, the “Liver weight % body weight” value [2] was 4.9 ± 0.3% and the “Weight (pre-treatment)” value [2] was 35.6 ± 0.6 g. The “Weight (termination)” value [2] was 33.1 ± 0.4 g.
